Results as given in patent US20240002540A1.

Tests used:
[1] = target: FcγRI recombinant protein, His-tagged (UniProt P12314); experiment: SPR (Biacore), His-tagged receptor captured by anti-His antibody on CM5 chip, antibody as analyte
[2] = target: human CD3 on T cells (Jurkat cells; human peripheral blood CD4+ and CD8+ T-cells) (human) (UniProt P07766); experiment: flow cytometry on Jurkat cells

Chain of FcγRI recombinant protein, His-tagged (P12314 16-288 limits assumed): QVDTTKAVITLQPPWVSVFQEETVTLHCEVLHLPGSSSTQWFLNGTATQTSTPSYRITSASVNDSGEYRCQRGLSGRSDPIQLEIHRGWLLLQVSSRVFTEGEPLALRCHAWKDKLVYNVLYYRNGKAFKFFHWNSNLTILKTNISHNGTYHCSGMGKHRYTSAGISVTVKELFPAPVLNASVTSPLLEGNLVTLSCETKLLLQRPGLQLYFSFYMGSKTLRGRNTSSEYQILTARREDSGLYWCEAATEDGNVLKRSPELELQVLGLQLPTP

Row | Substance | Kd [1] [nM] | affinity, FACS (Jurkat) [2] [nM]
1 | IgG4 isotype control (antibody) | 14 | 
2 | OKT3-hIgG1 (antibody) |  | 0.27
